Test results: patent US20250353921A1
Where “and” joins values, the source holds several entries; their conditions need not be identical. Equal values may be shown once. Values belong to the substance of their own block, whether it stands above or below them.

Tests used:
[1] = target: human OX40 (TNFRSF4, CD134) on cells (human) (UniProt P43489); test: cell-based or functional assay
[2] = target: Human OX40 (Acro Biosystems, catalog NO: OXO-H5224) protein (human) (UniProt P43489); test: SPR Biacore 8K+, single cycle kinetics, antibody captured by anti-human Fc, OX40 analyte, pH 7.4, 25 °C
Human OX40 (Acro Biosystems, catalog NO: OXO-H5224) protein (human), sequence (P43489 29-216 limits assumed): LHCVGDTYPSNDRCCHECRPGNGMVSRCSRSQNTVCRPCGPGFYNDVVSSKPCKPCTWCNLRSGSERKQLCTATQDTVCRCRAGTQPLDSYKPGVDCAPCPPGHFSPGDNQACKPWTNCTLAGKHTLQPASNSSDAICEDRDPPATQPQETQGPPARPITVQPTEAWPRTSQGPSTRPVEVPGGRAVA

[3] = target: human OX40 (TNFRSF4, CD134) on cells (human) (UniProt P43489); test: flow cytometry on Jurkat-NFκB (OX40) cells, detection with anti-human IgG Fc-AF647

human OX40 (TNFRSF4, CD134) on cells (human), sequence (P43489 29-277 limits assumed): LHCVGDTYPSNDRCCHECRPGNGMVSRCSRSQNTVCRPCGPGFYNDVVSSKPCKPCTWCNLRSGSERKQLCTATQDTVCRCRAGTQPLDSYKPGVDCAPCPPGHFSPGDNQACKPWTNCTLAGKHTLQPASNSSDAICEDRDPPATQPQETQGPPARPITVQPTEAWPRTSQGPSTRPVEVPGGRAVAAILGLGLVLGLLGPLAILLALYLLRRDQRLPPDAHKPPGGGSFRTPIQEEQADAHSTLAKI

ADCC EC50, activated T cells [1]: 0.008 nM
ADCC EC50, in vitro differentiated Tregs [1]: 0.005 nM
ADCC EC50, regulatory T cells (LDH release) [1]: 0.05 nM
EC50, inhibition of IL-2 release [1]: 5.87 nM
EC50, inhibition of IL-4 release [1]: 1.77 nM
EC50, inhibition of IL-5 release [1]: 18.6 nM
EC50, inhibition of IL-8 release [1]: 4.05 nM
EC50, inhibition of IL-10 release [1]: 20.3 nM
EC50, inhibition of IL-13 release [1]: 4 nM
EC50, inhibition of IL-17a release [1]: 11.7 nM
EC50, inhibition of IL-21 release [1]: 2.75 nM
EC50, inhibition of IL-22 release [1]: 10.4 nM
EC50, inhibition of IL-31 release [1]: 1.84 nM
EC50, inhibition of T cell proliferation [1]: 0.15 nM and 0.019 µg/ml
EC50, inhibition of TNF-α release [1]: 3.9 nM
responders (Resp) of donors tested, coated T cell agonism assay (responders of 9 donors) [1]: 7
Kd [2]: 3 nM
Substance: AMG451 (rocatinlimab) (antibody)
Maximum killing (%), ADCC, activated T cells [1]: 60.3%
Maximum killing (%), ADCC, regulatory T cells [1]: 85.8%

luminescence, Jurkat-NFκB-OX40 agonism assay [1]: 3 fold
Substance: IMG-007 (antibody)

average proliferation index (Av), coated T cell agonism assay [1]: 1.16
responders (Resp) of donors tested, coated T cell agonism assay (responders of 15 donors) [1]: 0
Substance: IgG1 control (antibody)
Maximum killing (%), ADCC, activated T cells [1]: 2.27%
Maximum killing (%), ADCC, regulatory T cells [1]: -0.83%

average proliferation index (Av), coated T cell agonism assay [1]: 3.41
luminescence, Jurkat-NFκB-OX40 agonism assay [1]: > 2 fold
responders (Resp) of donors tested, coated T cell agonism assay (responders of 11 donors) [1]: 9
EC50 (read off the curve) [3]: 0.1 µg/mL
Substance: MEDI0562 (humanized 9B12, tavolixizumab) (antibody)
